Laboratory results: the supplement of paper PMC10567573
± gives the standard deviation.

Experiment: protein stability index of a GFP-peptide fusion (GPS, HEK-293T) (PSI 1-6); higher = more stable
Settings: c terminus: a fixed tail appended
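Note: 24-mer peptide tiles fused after GFP, lentivirally expressed, FACS-sorted into six equal bins by GFP/DsRed ratio, decoded by Illumina sequencing, PSI is the read-weighted mean bin number.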

Row | Sequence | protein stability index (treatment: DMSO) | protein stability index (treatment: MLN4924 1 uM, 8 h)
1 | CLQQKQVVAEAQTRVSQLGLQVEG [LRRC45] | 3.86 ± 0.24 | 3.8 ± 0.38
2 | FVQVKGNFARLQTCISELRMLQRE [M1AP] | 2.47 ± 0.75 | 2.11 ± 0.22
3 | DMIYVSGGFDGSRRHTSMERYDPN [KLHL12] | 3.85 ± 0.15 | 4 ± 0.3
4 | PRYREDPCKQCKKKYVKGDVSLCR [FBXO34] | 2.99 ± 0.45 | 3.35 ± 0.24
5 | KLATQHKQLISQTKKKQWCYNCEE [ZMYND11] | 3.48 ± 0.4 | 3.8 ± 0.23
6 | NNKLKLQQKLVIDTVTEVTARMEM [CBY2] | 2.94 ± 0.53 | 2.89 ± 0.41
7 | SEGDLKNAIRVHHALATRASDYSK [PSD2] | 4.04 ± 0.11 | 4.22 ± 0.18
8 | ALRLEVRAGPDSAGIALYSHEDVC [CARM1] | 2.61 ± 0.64 | 2.55 ± 0.56
9 | VPLGFHYETKYVVLSYLGLLSQEK [BCL2L13] | 3.25 ± 0.93 | 2.4 ± 0.91
10 | GARAALNEIESRHRELLRLESRIR [STX11] | 3.46 ± 0.26 | 3.72 ± 0.35
11 | VCKGLPQHEEICLGLFTLILTEPA [INTS3] | 2.53 ± 0.47 | 2.5 ± 0.48
12 | AKLAINQGMEVDLVTGLAIEEACY [AUH] | 2.07 ± 0.21 | 2.32 ± 0.44
13 | AKAQVRKAVQYEEKNPCRTLCCFC [STX11] | 2.97 ± 0.24 | 3.36 ± 0.54
14 | NGSSEKREVRQFQFTAWPDHGVPE [PTPRD] | 4.41 ± 0.14 | 4.43 ± 0.19
15 | DTGHDSDKSDQSLPNASADSLGGS [TRAF3IP2] | 5.35 ± 0.42 | 5.51 ± 0.18
16 | LSHSPQEDWVLLGMANGQQWLQST [TLE6] | 2.57 ± 0.3 | 2.52 ± 0.26
17 | QSLPCTERKPAATARLSRRGTSLS [KISS1] | 4.71 ± 0.2 | 4.66 ± 0.32
18 | HVAPLLAAAGLHASPMSADRVVAF [NR2F2] | 2.27 ± 0.43 | 2.24 ± 0.27
19 | RTVNALEIELQAQHNLRDSLENTL [KRT34] | 3.41 ± 0.064 | 3.64 ± 0.42
20 | EVLDGVEDAEGEEEEEEEEEEEDD [FKBP8] | 5.46 ± 0.38 | 5.69 ± 0.23
21 | IFTKKLPHPDLPAEEKEQLLHNDE [USP39] | 5 ± 0.16 | 5.03 ± 0.1
22 | ELDAIIEEVDEDGSGTIDFEEFLV [TNNC2] | 4.4 ± 0.22 | 4.33 ± 0.23
23 | RGRAREREQLQAEASERFAAGYIQ [HES6] | 4.58 ± 0.2 | 4.57 ± 0.1

Row | Sequence | protein stability index (treatment: DMSO) | protein stability index (treatment: MLN4924 1 uM, 8 h)
24 | LRVEFAAENYLSGGGPGDGGGADT [FBXO33] | 4.16 ± 0.18 | 4.13 ± 0.26
25 | YLDPSVLSGVSCFVMFLCLADYLV [ARL6IP1] | 2.98 ± 0.21 | 2.97 ± 0.39
26 | LKTSRKDVKDKETTENENTKFEVR [CHGB] | 5.03 ± 0.11 | 5.22 ± 0.092
27 | LLSRFSVGIFHLMQIAVPCAFLLL [TMEM175] | 2.6 ± 0.35 | 2.24 ± 0.25
28 | TSDLGTTDVQKKKLVDAIVSGDTS [RIPK4] | 4.97 ± 0.21 | 5.09 ± 0.12
29 | GPWSCENFNPLLVAGGVAVAAIAL [CEND1] | 3.34 ± 0.4 | 2.58 ± 0.9
30 | QKRYHCKECGKVFSQSAGLIQHQR [ZSCAN9] | 3.3 ± 0.35 | 3.63 ± 0.63
31 | FLDLLSVFSDTATPDIKSHYAFRI [CIB1] | 2.86 ± 0.6 | 2.85 ± 0.76
32 | NFQFLPQVNGHPDPFDEIILFSLP [PTPN9] | 2.4 ± 0.29 | 2.37 ± 0.19
33 | KLLNRCCHLFSTYVASHKIEKEEQ [ACBD3] | 2.21 ± 0.1 | 2.23 ± 0.28
34 | WKIALLFVAFALCMFCLYSFMPLV [SLC35F2] | 2.19 ± 0.51 | 2.69 ± 0.46
35 | VLVHCEAGISRSPTICMAYLMKTK [DUSP5] | 2.77 ± 0.61 | 2.39 ± 0.41
36 | QSLDEPGGATFLLTAKQLIKSIVE [TRIM63] | 2.6 ± 0.33 | 2.32 ± 0.37
37 | RGDPLGGCQVSPEGYAHLTHLLMG [HDAC6] | 2.35 ± 0.31 | 2.71 ± 0.47
38 | LGPRDAGTRGRLESAQATFQAHRD [ARFIP2] | 4.62 ± 0.35 | 4.67 ± 0.27
39 | HEEEVSVLRCQLGDRLNVEVDAAP [KRT36] | 5.17 ± 0.26 | 4.95 ± 0.32
40 | GELRSKSGHKLYIFLFQDILVLTR [NET1] | 2.5 ± 0.66 | 1.75 ± 0.27
41 | VDFSLSGRLLFAGYNDYTINVWDV [GNB5] | 3.23 ± 0.53 | 2.58 ± 0.61
42 | RMENVTVLGEDVIVNDELYLNGAS [GMPPB] | 4.09 ± 0.072 | 4.1 ± 0.29
43 | KACNKAVAGEFSEPVTLETPAFMF [FSD1] | 2.84 ± 0.18 | 2.98 ± 0.33
44 | FSDLNSTRGDADMYDLPKKEDALL [EMD] | 4.77 ± 0.24 | 4.9 ± 0.05
45 | YTCHECGDSFSHSSNRIRHLRTHT [ZNF263] | 3.04 ± 0.18 | 3.32 ± 0.33
46 | YVKVFEHFLENLDKSRKGELLKKS [PRIM1] | 1.96 ± 0.31 | 2.09 ± 0.48

Row | Sequence | protein stability index (treatment: DMSO) | protein stability index (treatment: MLN4924 1 uM, 8 h)
47 | SNPGPVPGSSSGPVLGSSSGAGHG [SPAG8] | 5.051 ± 0.027 | 4.7 ± 0.35
48 | AGNDPYCFVEFHEHRHAAAALAAM [TIA1] | 2.66 ± 0.17 | 2.7 ± 0.25
49 | SSGRKWGDDAPKEEVDTGAVNLIE [INTS4] | 5.22 ± 0.6 | 5.21 ± 0.13
50 | QEQRLGIRISMSHEEEPLGTAGPL [GMPPB] | 4.82 ± 0.21 | 4.79 ± 0.34
51 | MDMDQDSEEEKELYLNLALHLASD [PDS5B] | 3.82 ± 0.23 | 4.04 ± 0.081
52 | MDVTSRCTLGDPNKLPEGVPQPAR [KLHL20] | 4.64 ± 0.28 | 4.72 ± 0.23
53 | PFKQVAEMLSASRYPTISMVKPLL [ZBED1] | 1.97 ± 0.4 | 2.19 ± 0.38
54 | RDKAEELLQLPDTKVGSFMIRESE [SLA] | 4.66 ± 0.37 | 4 ± 0.79
55 | AGGSSGTTARERPCVRPGVSGSPV [FBF1] | 4.58 ± 0.16 | 4.47 ± 0.32
56 | PRPDMAPELTPEEEQATKQFLEEI [PTPN9] | 5.12 ± 0.48 | 5.08 ± 0.62
57 | YGLPIMVTLMVAKWTGDFFNKGIY [CLCN6] | 2.98 ± 0.25 | 3.4 ± 0.42
58 | EVREPALRPAKRELRGAEPGRPAR [SPSB4] | 4.48 ± 0.39 | 4.9 ± 0.22
59 | DVVCKNQDELRNRSVKVICLGSLA [FAN1] | 2.72 ± 0.26 | 2.98 ± 0.2
60 | MGQHISLAPIHKLEEALYEYQPLQ [MNAT1] | 3 ± 0.29 | 3 ± 0.048
61 | PIPWFLPESRSLPSSPLRLGSYKA [PPEF2] | 2.99 ± 0.16 | 3.11 ± 0.48
62 | EEEGPSTFPDLESEFQAALSRKVA [MAGEA3] | 4.95 ± 0.22 | 5.12 ± 0.22
63 | QFLGFSWIFVNLTVRFCILGKESF [HACD3] | 3.49 ± 0.52 | 3.25 ± 0.16
64 | QQLAAEPVPTGFFNMWGFGRVSKQ [WDR41] | 3.56 ± 0.35 | 3.49 ± 0.25
65 | PCSFVCWYRPMYKAFRSDSSFNFF [SCAMP3] | 2.86 ± 0.77 | 2.6 ± 0.5
66 | IALVENIPEGLNYSENAPFHLSLF [PLD5] | 2.2 ± 0.83 | 2.25 ± 0.24
67 | CQVALNFANEEEAKKFRKAVTDLL [WASL] | 1.91 ± 0.35 | 2.53 ± 0.84
68 | VKVVLIPVGQEIVIPFKVDTILKY [IQUB] | 3.98 ± 0.88 | 2.5 ± 0.79
69 | AKYPHDVVNHLSCDEARNHYGGVV [SPACA9] | 3.5 ± 0.27 | 3.58 ± 0.082

Row | Sequence | protein stability index (treatment: DMSO) | protein stability index (treatment: MLN4924 1 uM, 8 h)
70 | NAKLAADDFRTKYQTEQSLRQLVE [KRT33B] | 3.4 ± 0.26 | 3.48 ± 0.14
71 | GTPKDHDSPENGADSFESSDSLLQ [ETS2] | 5.46 ± 0.23 | 5.47 ± 0.23
72 | GMEGDWSWVDDTPFNKVQSARFWI [CD207] | 1.82 ± 0.3 | 2.25 ± 0.32
73 | PTAATTQNPVLSKLLMADQDSPLD [LCOR] | 4.9 ± 0.17 | 4.87 ± 0.19
74 | DIYKQECSSRPLQKGSHPMCKEHE [TRIM63] | 4.49 ± 0.24 | 4.67 ± 0.23
75 | FVRGQEFKAHKSVLAARSPVFNAM [SPOPL] | 2.66 ± 0.45 | 2.83 ± 0.34
76 | TLVSSGSGTMGAAKVTGEVLDILT [FLOT1] | 2.97 ± 0.44 | 2.91 ± 0.49
77 | HRKRGSQPPDMASALTDRTSRAPS [RSPH3] | 4.89 ± 0.17 | 4.95 ± 0.18
78 | MYEEEMEREEITTKKRKLGKNPDV [FAM50A] | 4.94 ± 0.57 | 5.14 ± 0.44
79 | GGRRPGTSPALLQGTAEEDHVDLS [CDKN1A] | 5.46 ± 0.23 | 5.33 ± 0.18
80 | VVDKETDNMYRLAHFSPFLYYQSQ [PDZK1] | 2.62 ± 0.35 | 
81 | KFSPDGKYVVSGFDVDHGICIMDA [WDR88] | 2.69 ± 0.21 | 3.13 ± 0.49
82 | ISNIDTTIEGTSDDLTVVDAASLR [MFF] | 5.09 ± 0.27 | 4.82 ± 0.56
83 | ALKEELLFMKKNHEEEVKGLQAQI [KRT18] | 3.79 ± 0.36 | 3.95 ± 0.28
84 | GDLQDTKENREEARFQDKQYSSHH [CHGB] | 5.18 ± 0.21 | 5.02 ± 0.35
85 | ISLAKGPPGPKGDQGDEGKEGRPG [SCARA5] | 5.24 ± 0.26 | 5.485 ± 0.034
86 | KLLQGEEERLKLSPSPSSRVTVSR [LMNB1] | 4.13 ± 0.23 | 4.13 ± 0.3
87 | YAFANVFHGWKYMFGLVIPLGVLQ [SLC2A12] | 3.19 ± 0.62 | 3.11 ± 0.52
88 | NSNLEEPLNPKPHKKKSPGEKPHR [ZNF449] | 5.47 ± 0.23 | 5.45 ± 0.2
89 | TLWDVFGANKEVQELLERGLLQLD [RSAD1] | 2.33 ± 0.25 | 2.64 ± 0.11
90 | NNYRLGGNPSTNSRVTASSGITIP [SMARCE1] | 3.64 ± 0.3 | 3.54 ± 0.38
